Among the data in article PMC3911823 (The FEBS journal, 2011) are Km, kcat and kcat/Km values, retold here.

Holding throughout (format): biochemical, rabbit (Oryctolagus cuniculus)
Substrate in data set [1]: COc1ccc2c(C(F)(F)F)cc(=O)oc2c1
The note with it: other: 2B4 E474Q; Michaelis-Menten fit; 37.0 °C.

Substrate in data set [2]: CCOc1ccc2c(C(F)(F)F)cc(=O)oc2c1
The conditions noted are these: other: 2B4 E474Q; Michaelis-Menten fit; 37.0 °C.

Substrate in data set [3]: COc1ccc2c(C(F)(F)F)cc(=O)oc2c1
The conditions noted are these: other: 2B4 WT; substrate O-dealkylation, Michaelis-Menten fit; 37.0 °C.

Substrate in data set [4]: CCOc1ccc2c(C(F)(F)F)cc(=O)oc2c1
The note with it: other: 2B4 WT; substrate O-dealkylation, Michaelis-Menten fit; 37.0 °C.

Substrate in data set [5]: COc1ccc2c(C(F)(F)F)cc(=O)oc2c1
The conditions noted are these: other: 2B4 E474D; Michaelis-Menten fit; 37.0 °C.

Substrate in data set [6]: CCOc1ccc2c(C(F)(F)F)cc(=O)oc2c1
The note with it: other: 2B4 E474D; Michaelis-Menten fit; 37.0 °C.

Substrate in data set [7]: COc1ccc2c(C(F)(F)F)cc(=O)oc2c1
The note with it: other: 2B4 H172A; Michaelis-Menten fit; 37.0 °C.

Substrate in data set [8]: CCOc1ccc2c(C(F)(F)F)cc(=O)oc2c1
The conditions noted are these: other: 2B4 H172A; Michaelis-Menten fit; 37.0 °C.

Substrate in data set [9]: COc1ccc2c(C(F)(F)F)cc(=O)oc2c1
The note with it: other: 2B4 L437A; Michaelis-Menten fit; 37.0 °C.

Substrate in data set [10]: CCOc1ccc2c(C(F)(F)F)cc(=O)oc2c1
The note with it: other: 2B4 L437A; Michaelis-Menten fit; 37.0 °C.

Substrate in data set [11]: COc1ccc2c(C(F)(F)F)cc(=O)oc2c1
The conditions noted are these: other: 2B4 H172Q; Michaelis-Menten fit; 37.0 °C.

Substrate in data set [12]: CCOc1ccc2c(C(F)(F)F)cc(=O)oc2c1
The note with it: other: 2B4 H172Q; Michaelis-Menten fit; 37.0 °C.

Residue numbers refer to the chain shown, from its start. Names and notes keep the numbering of the source. Like-named read-outs stand apart in the source and are kept apart here.

B1: P450 2B4 E474Q (Oryctolagus cuniculus; E474Q) (protein)
chain: MAKKTSSKGKLPPGPSPLPVLGNLLQMDRKGLLRSFLRLREKYGDVFTVYLGSRPVVVLCGTDAIREALVDQAEAFSGRGKIAVVDPIFQGYGVIFANGERWRALRRFSLATMRDFGMGKRSVEERIQEEARCLVEELRKSKGALLDNTLLFHSITSNIICSIVFGKRFDYKDPVFLRLLDLFFQSFSLISSFSSQVFELFPGFLKHFPGTHRQIYRNLQEINTFIGQSVEKHRATLDPSNPRDFIDVYLLRMEKDKSDPSSEFHHQNLILTVLSLFFAGTETTSTTLRYGFLLMLKYPHVTERVQKEIEQVIGSHRPPALDDRAKMPYTDAVIHEIQRLGDLIPFGVPHTVTKDTQFRGYVIPKNTEVFPVLSSALHDPRYFETPNTFNPGHFLDANGALKRNEGFMPFSLGKRICLGEGIARTELFLFFTTILQNFSIASPVPPEDIDLTPRQSGVGNVPPSYQIRFLAR
In general, Km refers to the concentration of substrate that gives half-maximal velocity. For orientation: kcat means the maximal rate divided by the concentration of active sites. One may read the kcat/Km as the turnover number divided by the Michaelis constant. As to B1, in data set [1], the Michaelis-Menten constant (Km) is 178 ± 17 µM and the turnover number (kcat) came out at 0.04 ± 0.005 s⁻¹. Besides, in [2], the Km was 64 ± 8 µM, the kcat turned out to be 0.02 ± 0.0033 s⁻¹ and the kcat/Km was found to be 333 M⁻¹ s⁻¹.

B2: P450 2B4 wild type (Oryctolagus cuniculus) (protein)
chain: B1 chain with Q455E
Consider B2, for which, in data set [3], the Michaelis-Menten constant (Km) came out at 132 ± 6 µM, the kcat is 0.188 ± 0.0033 s⁻¹ and the kcat/Km was 1330 M⁻¹ s⁻¹. Moreover, in [4], the Km is 25 ± 3 µM, the kcat turned out to be 0.16 ± 0.0067 s⁻¹ and the kcat/Km was 6000 M⁻¹ s⁻¹.

B3: P450 2B4 E474D (Oryctolagus cuniculus; E474D) (protein)
chain: B1 chain with Q455D
Turning to B3, in [5], the Michaelis constant (Km) came out at 185 ± 14 µM, the turnover number (kcat) worked out at 0.0633 ± 0.0033 s⁻¹ and the kcat/Km came to 333 M⁻¹ s⁻¹. In addition, in data set [6], the Km was 77 ± 10 µM and the catalytic constant (kcat) worked out at 0.0067 ± 0.0017 s⁻¹.

B4: P450 2B4 H172A (Oryctolagus cuniculus; H172A) (protein)
chain: B1 chain with H153A, Q455E
Consider B4, for which, in data set [7], the Km is 126 ± 11 µM, the turnover number (kcat) came to 0.0867 ± 0.01 s⁻¹ and the kcat/Km was found to be 667 M⁻¹ s⁻¹. For the same protein, in data set [8], the Km amounted to 26 ± 4 µM, the kcat was 0.07 ± 0.005 s⁻¹ and the specificity constant (kcat/Km) was found to be 2500 M⁻¹ s⁻¹.

B5: P450 2B4 L437A (Oryctolagus cuniculus; L437A) (protein)
chain: B1 chain with L418A, Q455E
For the protein B5, in data set [9], the Michaelis-Menten constant (Km) was found to be 85 ± 8 µM, the kcat is 0.03 ± 0.0033 s⁻¹ and the kcat/Km was 333 M⁻¹ s⁻¹. Besides, in [10], the Km was 25 ± 4 µM, the kcat was 0.045 ± 0.0033 s⁻¹ and the kcat/Km is 2000 M⁻¹ s⁻¹.

B6: P450 2B4 H172Q (Oryctolagus cuniculus; H172Q) (protein)
chain: B1 chain with H153Q, Q455E
In the case of B6, in [11], the Km was 115 ± 15 µM, the kcat turned out to be 0.123 ± 0.0083 s⁻¹ and the kcat/Km came out at 1000 M⁻¹ s⁻¹. Also, in data set [12], the Michaelis constant (Km) came to 48 ± 6 µM, the kcat amounted to 0.0283 ± 0.005 s⁻¹ and the catalytic efficiency (kcat/Km) was 667 M⁻¹ s⁻¹.
